Results published in patent US7807788.
Values joined by “and” are separate entries in the source; they are usually repeats but may differ in a detail not shown here. Equal values may be shown once.

Legend:
[1] = biological target: T1, IL-13 16 mer peptide 22; test: 16 mer peptide ELISA; peptide 22
T1 sequence (peptide, N-terminal biotin; C-terminal amide): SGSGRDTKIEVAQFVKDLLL

[2] = biological target: T2, IL-13 16 mer peptide 13; test: 16 mer peptide ELISA; peptide 13
T2 sequence (peptide, N-terminal biotin; C-terminal amide): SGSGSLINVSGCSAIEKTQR

[3] = biological target: T3, IL-13 16 mer peptide 11; test: 16 mer peptide ELISA; peptide 11
T3 sequence (peptide, N-terminal biotin; C-terminal amide): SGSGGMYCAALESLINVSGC

[4] = biological target: T4, IL-13 16 mer peptide 8; test: 16 mer peptide ELISA; peptide 8
T4 sequence (peptide, N-terminal biotin; C-terminal amide): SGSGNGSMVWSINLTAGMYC

[5] = biological target: T5, IL-13 16 mer peptide 4; test: 16 mer peptide ELISA; peptide 4
T5 sequence (peptide, N-terminal biotin; C-terminal amide): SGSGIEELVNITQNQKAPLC

[6] = biological target: T6, IL-13 16 mer peptide 20; test: 16 mer peptide ELISA; peptide 20
T6 sequence (peptide, N-terminal biotin; C-terminal amide): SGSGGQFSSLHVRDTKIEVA

[7] = biological target: T7, IL-13 16 mer peptide 27; test: 16 mer peptide ELISA; peptide 27
T7 sequence (peptide, N-terminal biotin; C-terminal amide): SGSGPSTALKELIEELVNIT

[8] = biological target: T8, IL-13 16 mer peptide 42; test: 16 mer peptide ELISA; peptide 42
T8 sequence (peptide, N-terminal biotin; C-terminal amide): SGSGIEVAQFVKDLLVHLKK

[9] = biological target: T9, IL-13 16 mer peptide 37; test: 16 mer peptide ELISA; peptide 37
T9 sequence (peptide, N-terminal biotin; C-terminal amide): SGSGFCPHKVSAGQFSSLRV

[10] = biological target: T10, IL-13 16 mer peptide 31; test: 16 mer peptide ELISA; peptide 31
T10 sequence (peptide, N-terminal biotin; C-terminal amide): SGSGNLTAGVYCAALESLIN

[11] = biological target: T11, IL-13 16 mer peptide 14; test: 16 mer peptide ELISA; peptide 14
T11 sequence (peptide, N-terminal biotin; C-terminal amide): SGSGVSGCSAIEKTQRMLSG

[12] = biological target: T12, IL-13 16 mer peptide 10; test: 16 mer peptide ELISA; peptide 10
T12 sequence (peptide, N-terminal biotin; C-terminal amide): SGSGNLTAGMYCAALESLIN

[13] = biological target: T13, IL-13 16 mer peptide 41; test: 16 mer peptide ELISA; peptide 41
T13 sequence (peptide, by the resolver, N-terminal biotin on the SGSG spacer; C-terminal amide): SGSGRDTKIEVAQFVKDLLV

[14] = biological target: T14, IL-13 16 mer peptide 15; test: 16 mer peptide ELISA; peptide 15
T14 sequence (peptide, N-terminal biotin; C-terminal amide): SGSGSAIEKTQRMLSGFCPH

[15] = biological target: T15, IL-13 16 mer peptide 2; test: 16 mer peptide ELISA; peptide 2
T15 sequence (peptide, N-terminal biotin; C-terminal amide): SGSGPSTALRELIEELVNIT

[16] = biological target: T16, IL-13 16 mer peptide 6; test: 16 mer peptide ELISA; peptide 6
T16 sequence (peptide, N-terminal biotin; C-terminal amide): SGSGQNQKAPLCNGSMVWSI

[17] = biological target: T17, IL-13 16 mer peptide 39; test: 16 mer peptide ELISA; peptide 39
T17 sequence (peptide, N-terminal biotin; C-terminal amide): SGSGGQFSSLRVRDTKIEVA

[18] = biological target: T18, IL-13 16 mer peptide 3; test: 16 mer peptide ELISA; peptide 3
T18 sequence (peptide, N-terminal biotin; C-terminal amide): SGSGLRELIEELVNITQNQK

[19] = biological target: T19, IL-13 16 mer peptide 35; test: 16 mer peptide ELISA; peptide 35
T19 sequence (peptide, N-terminal biotin; C-terminal amide): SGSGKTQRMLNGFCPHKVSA

[20] = biological target: T20, IL-13 16 mer peptide 40; test: 16 mer peptide ELISA; peptide 40
T20 sequence (peptide, N-terminal biotin; C-terminal amide): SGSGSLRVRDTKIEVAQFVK

[21] = biological target: T21, IL-13 16 mer peptide 28; test: 16 mer peptide ELISA; peptide 28
T21 sequence (peptide, N-terminal biotin; C-terminal amide): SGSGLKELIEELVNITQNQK

[22] = biological target: T22, IL-13 16 mer peptide 34; test: 16 mer peptide ELISA; peptide 34
T22 sequence (peptide, N-terminal biotin; C-terminal amide): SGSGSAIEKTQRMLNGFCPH

[23] = biological target: T23, IL-13 16 mer peptide 17; test: 16 mer peptide ELISA; peptide 17
T23 sequence (peptide, N-terminal biotin; C-terminal amide): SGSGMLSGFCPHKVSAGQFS

[24] = biological target: T24, IL-13 16 mer peptide 12; test: 16 mer peptide ELISA; peptide 12
T24 sequence (peptide, N-terminal biotin; C-terminal amide): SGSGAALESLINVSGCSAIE

[25] = biological target: T25, IL-13 16 mer peptide 7; test: 16 mer peptide ELISA; peptide 7
T25 sequence (peptide, N-terminal biotin; C-terminal amide): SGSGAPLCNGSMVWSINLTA

[26] = biological target: T26, IL-13 16 mer peptide 19; test: 16 mer peptide ELISA; peptide 19
T26 sequence (peptide, N-terminal biotin; C-terminal amide): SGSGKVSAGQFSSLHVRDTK

[27] = biological target: T27, IL-13 16 mer peptide 23; test: 16 mer peptide ELISA; peptide 23
T27 sequence (peptide, N-terminal biotin; C-terminal amide): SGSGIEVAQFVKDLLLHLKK

[28] = biological target: T28, IL-13 16 mer peptide 29; test: 16 mer peptide ELISA; peptide 29
T28 sequence (peptide, N-terminal biotin; C-terminal amide): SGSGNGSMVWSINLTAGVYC

[29] = biological target: T29, IL-13 16 mer peptide 9; test: 16 mer peptide ELISA; peptide 9
T29 sequence (peptide, N-terminal biotin; C-terminal amide): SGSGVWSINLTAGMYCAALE

[30] = biological target: T30, IL-13 16 mer peptide 5; test: 16 mer peptide ELISA; peptide 5
T30 sequence (peptide, N-terminal biotin; C-terminal amide): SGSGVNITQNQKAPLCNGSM

[31] = biological target: T31, IL-13 16 mer peptide 33; test: 16 mer peptide ELISA; peptide 33
T31 sequence (peptide, N-terminal biotin; C-terminal amide): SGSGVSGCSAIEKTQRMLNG

[32] = biological target: T32, IL-13 16 mer peptide 21; test: 16 mer peptide ELISA; peptide 21
T32 sequence (peptide, N-terminal biotin; C-terminal amide): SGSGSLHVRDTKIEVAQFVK

[33] = biological target: T33, IL-13 16 mer peptide 30; test: 16 mer peptide ELISA; peptide 30
T33 sequence (peptide, N-terminal biotin; C-terminal amide): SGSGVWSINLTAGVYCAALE

[34] = biological target: T34, IL-13 16 mer peptide 32; test: 16 mer peptide ELISA; peptide 32
T34 sequence (peptide, N-terminal biotin; C-terminal amide): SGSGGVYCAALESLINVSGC

[35] = biological target: T35, IL-13 16 mer peptide 36; test: 16 mer peptide ELISA; peptide 36
T35 sequence (peptide, N-terminal biotin; C-terminal amide): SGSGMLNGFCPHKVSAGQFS

[36] = biological target: T36, IL-13 16 mer peptide 18; test: 16 mer peptide ELISA; peptide 18
T36 sequence (peptide, N-terminal biotin; C-terminal amide): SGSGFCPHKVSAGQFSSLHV

[37] = biological target: T37, IL-13 16 mer peptide 16; test: 16 mer peptide ELISA; peptide 16
T37 sequence (peptide, N-terminal biotin; C-terminal amide): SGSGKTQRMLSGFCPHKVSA

[38] = biological target: T38, IL-13 16 mer peptide 38; test: 16 mer peptide ELISA; peptide 38
T38 sequence (peptide, N-terminal biotin; C-terminal amide): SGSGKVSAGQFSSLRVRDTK

absorbance at 490 nm [1]: 0.09 A490 and 0.076 A490 | absorbance at 490 nm [2]: 0.066 A490 and 0.063 A490 | absorbance at 490 nm [3]: 0.064 A490 and 0.061 A490 | absorbance at 490 nm [4]: 0.084 A490 and 0.071 A490 | absorbance at 490 nm [5]: 0.079 A490 and 0.105 A490 | absorbance at 490 nm [6]: 0.06 A490 and 0.104 A490 | absorbance at 490 nm [7]: 0.06 A490 and 0.082 A490 | absorbance at 490 nm [8]: 0.104 A490 and 0.108 A490 | absorbance at 490 nm [9]: 0.068 A490 and 0.063 A490 | absorbance at 490 nm [10]: 0.064 A490 and 0.056 A490 | absorbance at 490 nm [11]: 0.119 A490 and 0.115 A490 | absorbance at 490 nm [12]: 0.075 A490 and 0.064 A490 | absorbance at 490 nm [13]: 0.058 A490 | absorbance at 490 nm [14]: 0.081 A490 and 0.129 A490 | absorbance at 490 nm [15]: 0.057 A490 and 0.068 A490 | absorbance at 490 nm [16]: 0.072 A490 and 0.075 A490 | absorbance at 490 nm [17]: 0.057 A490 and 0.055 A490 | absorbance at 490 nm [18]: 0.067 A490 and 0.07 A490 | absorbance at 490 nm [19]: 0.089 A490 and 0.09 A490 | absorbance at 490 nm [20]: 0.06 A490 | absorbance at 490 nm [21]: 0.074 A490 and 0.078 A490 | absorbance at 490 nm [22]: 0.082 A490 and 0.067 A490 | absorbance at 490 nm [23]: 0.064 A490 and 0.06 A490 | absorbance at 490 nm [24]: 0.075 A490 and 0.062 A490 | absorbance at 490 nm [25]: 0.061 A490 and 0.072 A490 | absorbance at 490 nm [26]: 0.077 A490 and 0.063 A490 | absorbance at 490 nm [27]: 0.144 A490 and 0.135 A490 | absorbance at 490 nm [28]: 0.098 A490 and 0.071 A490 | absorbance at 490 nm [29]: 0.061 A490 and 0.07 A490 | absorbance at 490 nm [30]: 0.063 A490 and 0.065 A490 | absorbance at 490 nm [31]: 0.088 A490 and 0.084 A490 | absorbance at 490 nm [32]: 0.061 A490 and 0.078 A490 | absorbance at 490 nm [33]: 0.062 A490 | absorbance at 490 nm [34]: 0.071 A490 and 0.057 A490 | absorbance at 490 nm [35]: 0.073 A490 and 0.074 A490 | absorbance at 490 nm [36]: 0.073 A490 and 0.09 A490 | absorbance at 490 nm [37]: 0.099 A490 and 0.141 A490 | absorbance at 490 nm [38]: 0.067 A490 and 0.056 A490
B1: mouse monoclonal antibody 6A1 (antibody, mouse IgG1, V domains shown)
VH: EIQLQQSVAELVRPGASVRLSCTASGFYIKDTYMHWVIQRPEQGLEWIGTIDPANGNTKYVPKFQGKATITADTSSNTAYLRLSSLTSEDTAIYYCARSIYDDYHYDDYYAMDYWGQGTSVTVSS
VL: DVLMTQTPLSLPVSLGDQASISCRSSQNIVHINGNTYLEWYLQKPGQSPKLLIYKISDRFSGVPDRFSGSGSGTDFTLKISRVEAEDLGVYYCFQGSHVPWTFGGGTKLEIK
